Experimental findings from the nanobody polyreactivity screen of Harvey et al. (2022) are described below.

The nature of the data set: yeast display, Sf9 membrane polyspecificity reagent, FACS + sequencing; frameworks hold sequencing errors. The method, boiled down: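 Synthetic nanobody libraries on Saccharomyces cerevisiae BJ5465 were galactose-induced for 36–48 hours, stained 1 hour at 4 °C with 10% biotinylated, detergent-solubilized Sf9 membrane reagent and enriched on streptavidin microbeads. FACS then separated cells into low and high (top ~1%) gates by anti-HA (expression) and streptavidin (reagent binding) fluorescence. Genes were colony-PCR amplified, MiSeq 2 × 250 sequenced and CDR-length filtered. A clone's polyreactivity label is that of its gate of origin.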
Consider “QVQLVESWGGLVQAGGSLRLSCAASGSIFDYNAMGWYRQAPGKERELVAAISSGGSTNYADSVKGRFTISRDNAKNTVYLQMNSLKPEDTAVYYCNTGLYWLGYWPDDYWGQGTQVTVSS”, for which the “polyreactivity (PSR sort gate)” value was “low polyreactivity”.

For “QVQLVESWGGLVQAGGSLRLSCAASGSILYYYVMGWYRQAPGKERELVAAINSGGNTNYADSVKGRFTISRDNAKNTVYLQMNSLKTVDTAVYYCATASGDGVRTDFGNEYDYWGQGTQVNVSS”, the “polyreactivity (PSR sort gate)” value is “low polyreactivity”.

For the sequence “QVQLVESWGGLVQAGGSLRLSCAASGSNFYTYAMGWYRQAPGKERDFVAAITWSGGRTYYADSVKGRFTISRDNAKNSVYLQMNSLKPEDTAVYYCAATSWWATTGFDYWGQGTQVTVSS”, the “polyreactivity (PSR sort gate)” value was “low polyreactivity”.

On to “QVQLVESWGGLVQAGGSLRLSCAASGSTFVAYAMGGYRQAPGKEREFVAGISVRGGSTYYADSVKGRFTISRDNAKNTVYLQMNSLKPEDTAVYYCAARRVDTRVHVRYRYYYWGQGTQVTVSS”, for which the “polyreactivity (PSR sort gate)” value is “high polyreactivity”.

As to “QVQLVESWGGLVQAGGSLRLSCAASGSTISANALGWDRQAPGTEREWVASISRRGGSPYYADSVKGRFTISRDKATNTVYLQMNSLKPEDTAVYYSGAVFRYYARTFDYWGQGTQVSVSS”, the “polyreactivity (PSR sort gate)” value is recorded as “high polyreactivity”.

For the sequence “QVQLVESWGGLVQAGGSLRLSCDASGSTFIPKDMGWYRQAPGKERELVAAITVSGDDTYYADSVKGRFTISRDNAKNTVYIQMNILKPEVTAVYYCAAEWGLYVGQYEYCGQGTQVTVSS”, the “polyreactivity (PSR sort gate)” value is “low polyreactivity”.

As for “QVQLVESWGGLVQAGGSLRLSCDASGSTLYHNVMGWYRQAPGKERDLVASIDTGDSTNYADSVKGRFSISRDNAKNTVYLQMNSLKPEDTAVSYCNADSYTALNNRGYDYWGLGTQVTVSS”, the “polyreactivity (PSR sort gate)” value was “low polyreactivity”.

For “QVQLVESWGGLVQAGGSLRLSSPASGFTFFYYAMGWYRPAPGKERELVAAITSGGSTKNADSVKGRFTISRDNAKNSVYLQMNSLKPEDTAVYYCAARVRISGSPRILYNYWGQGTQVTVSS”, the “polyreactivity (PSR sort gate)” value is listed as “high polyreactivity”.

On to “QVQLVESWGGLVQAGGTLSLSCADSGLIFYFYDRGWYRQAPGKESEFVATISSTGGSTYYADSVKGRFTISRDNAKNTVYLQMNSVKPEDTAVYVCADRGWFPGFRYDYWGQGTQVTVSS”, for which the “polyreactivity (PSR sort gate)” value is listed as “low polyreactivity”.

Consider “QVQLVESWGGLVQAGRSHRLSCAASGIIFDGNALGWYRQAPRKEREMVAAISSSGARTYYADSVKGRFTISRDNAKNSVYLLMNSLKPEDTAVYYCNAAYFNWYTHVWNDYWGQGTQVTVSS”, for which the “polyreactivity (PSR sort gate)” value is “high polyreactivity”.

On to “QVQLVESWGGLVQSGGSLRLICAASGSTNQYNAMGWYRQAPGKERELVAAISLSGATTYYADSVKGRCTISRDPAKNTVYLQMNIQKPEDTSVYYCAADFGWFYDCVAVWFIRILGDYWGQGTQVTVSS”, for which the “polyreactivity (PSR sort gate)” value was “low polyreactivity”.

On to “QVQLVESWGVLVQAGGSLRLSCAASGSIFTYYTMGWYRPEPGKERDFVARISSGGSTNYADSVKGRFTISRDNAMNTVYLQMNSLKPEDTAVYYCAAVSSYSPYRLTYYYWGQGTQVTVSS”, for which the “polyreactivity (PSR sort gate)” value is recorded as “high polyreactivity”.

Consider “QVQLVESWGVLVQAGGSLRLSCAAYGSIFRLYAMGSYRTAPGTARELVAAITSGDSTNYADSVKGRFTISRDNAKNTVYLQMNSLKPEDTAVYYCNSGRISVRVTSEQYAYHEYYYWGQGTQVTVSS”, for which the “polyreactivity (PSR sort gate)” value is “high polyreactivity”.

With “QVQLVESWRGLDQAGGSLRLICSASGGIFKGYSMGWFRQAPGKERELVAVISSRVGSTYYADSLKGRFTISRDNEKNTVYLQMNSQKPEHTAVYYCAKRRYAAVNYNYWGQGTQVTVSS”, the “polyreactivity (PSR sort gate)” value is “high polyreactivity”.

As for “QVQLVETAGGLVKAGCSLRLSCAASGRIFYIYAMAWYRQSPGKESELLAAISTGGGGTYYADSVKGRFTISRDNAKNTVYLQMNSLKPEDTAVYYCAATSPLSLDEDYWGQGTQVTVSS”, the “polyreactivity (PSR sort gate)” value was “high polyreactivity”.

Consider “QVQLVETGAGIVQAGGILRLSCAASGSIFQGNAIGWYRQAPGKERELVAAISGGTSTYYADSEKGRFTISRDNAKNTVYLEMNSLKPEDTAVYYCAARFYGHPYWYDYWGLGTQVTVSS”, for which the “polyreactivity (PSR sort gate)” value is on record as “low polyreactivity”.

With “QVQLVETGAGLVQAGGSLRLSSAASGRTLYPYAMGWSRQSPGNERELVAAISSRGGSTYYADSVKGRFTISRDIAKNTVYLQMNSLKPEDTAVYYCAKTYRKILSITGDVPWTDYYWGQGTQVTVSS”, the “polyreactivity (PSR sort gate)” value is on record as “low polyreactivity”.

Take “QVQLVETGGCLVQAGGSLRLSCAASGFIFYIYAMGWYRQAPGKERELVAAITSGGSTYYADSVKGRFTITRDNAKNTVYLQMNSLKPDDTAVYYCASESYYGYDYWGQGTQVTVSS”: the “polyreactivity (PSR sort gate)” value is reported as “low polyreactivity”.

With “QVQLVETGGGIVQAGGRLRLSCAASGFTFYANTMGWYRQAPGKERELVATIRSTGSTKYADSVKGRFTISRDNAMNTVYLQMNSLNPEDTAVYYCAKRDRYYGVAVEGIRYDYWGQGTQVTVSS”, the “polyreactivity (PSR sort gate)” value is reported as “high polyreactivity”.

“QVQLVETGGGIVQAGGSLRLSCAASGFTFFRNAMGWYRQAPGKERELVAAISGSGGSTYYADSVKGRFTISRDNAKNKVYLQMNSLKPEDTAVYYCNAQKQIREPGNERLNYWGQGTQVTVSS”: the “polyreactivity (PSR sort gate)” value is recorded as “low polyreactivity”.

For the sequence “QVQLVETGGGIVQAGGSLRLSCAASGSTFDGYVMGWYRQEPGKERELVAAISGSGGSTYYADSVKGRFTISRDNAKNTVYFELYSLKPEDTSVYYCAADSWWYDDYSEGDYWGQGTQVTVSS”, the “polyreactivity (PSR sort gate)” value is on record as “low polyreactivity”.

In the case of “QVQLVETGGGIVQAGGSLSLSCAASGRIFSPYAMGWYRQAPGKERELVAAISYDDGITYYADSVKGRFTISRDNAKNTVYLQMISLKPEDTAVYYCAADSVTRPAGDYWGQGTQVTVSS”, the “polyreactivity (PSR sort gate)” value is reported as “low polyreactivity”.

Turning to “QVQLVETGGGIVQARGRLRLSCAASVITFTGYAMGWYRPAPGKERELVAAITSGGGRTYYADSVKGRFTISRDNAKNTVYLLMNSLKPEDTAVYYCNARGQSRYGYWGQGTQVTVSS”, the “polyreactivity (PSR sort gate)” value is on record as “high polyreactivity”.

For “QVQLVETGGGLDQAGGSLRLSCAASGRTFLLYAMGWYRQAPGKERELVARITGRGGRTYYADSVKGRFTISRDNAKNTVYLQMNSLKPEDTAVYYCNAKGYQGQWERYDYWGQGTEVTVSS”, the “polyreactivity (PSR sort gate)” value was “high polyreactivity”.

Turning to “QVQLVETGGGLDQAGVSLRLSCAASGSIFGYNDMGWYRQAPGKERELVAAIDCSDDITYYADSVKGRFTISRDNAKNTVYLQMYSLKPEETAVYYCAAVYYYYQYWAHTYYAGMEYWGQGTQVTVSS”, the “polyreactivity (PSR sort gate)” value is “high polyreactivity”.

In the case of “QVQLVETGGGLVKAGGSLRLSCAASGITFSVYTMGWDRQAPGKERELVASITRSVGSTYYADSVKGRFTISRDNAKNTVYLQMNSLKPEDTAVYYCAARRTVVTGRYYWGQGTQVTVSS”, the “polyreactivity (PSR sort gate)” value is listed as “high polyreactivity”.

As for “QVQLVETGGGLVKAGGSLRLSSAASGSIFVYYVMGWYRQAPGKERELVAAINSDGDGTYYADSVKGRFTISRDNAKNTVYLQMNSLKPEDTAVYYCAASAFTGVDTYGYGGQGTQVTVSS”, the “polyreactivity (PSR sort gate)” value is given as “low polyreactivity”.

On to “QVQLVETGGGLVPAGGSLRLSCAASGSTFQRYAMGWYRQAPGKERELVAAITWSGGSTKYADSVKGRFTISRDNAKNTVYLQMNSMKPEDTAVYYCARTYGSSRWGQGTQVTVSS”, for which the “polyreactivity (PSR sort gate)” value is given as “low polyreactivity”.

As to “QVQLVETGGGLVQAGGILRLSCAASGRIFGYNTMGWYRQAPGKERELVARISYDVDSTYYADSVKGRFTISRDNAKNTVYLQMNSLKPEDTAVYYCNARRSNLGSYIEYFGFDYWGQGTQVTVSS”, the “polyreactivity (PSR sort gate)” value is “low polyreactivity”.

For the sequence “QVQLVETGGGLVQAGGSHRLSCAASGYIFFGNAMGWYRQAPGKERELVASIRWRGTSTYYADSVKGRFTISRDNAKNTGYLHMNSLKPEDTAVYYCAADVVRSNFYGTFLYDYDYWGQGTQVTVSS”, the “polyreactivity (PSR sort gate)” value is on record as “low polyreactivity”.

Regarding “QVQLVETGGGLVQAGGSLRISCAASGLILDGYALGWYRQAPGKERELVAAITRSGGRTYYADSVKWRFTISRDNAKNTVYLQMNRLKPEDTAVYDCAALGWSGRYRYDYWGQGTLVTVSS”, the “polyreactivity (PSR sort gate)” value was “high polyreactivity”.

As for “QVQLVETGGGLVQAGGSLRISCAASGLTFYLYAMGWYRQSPGKERELVAAISSTGITNYADSVKGRFTISRDNAKNTVYLQMNSLNPEDTAVYYCNADYHPFFFEFNDWGQGTQVTVSS”, the “polyreactivity (PSR sort gate)” value is recorded as “high polyreactivity”.

Regarding “QVQLVETGGGLVQAGGSLRLICAASGSTFWRNAMGWYRQAPGKERELVATISKSGGRTYYADSVKGRFTISRDNAKNTVYLQMNRLKPEDTAVYYCAADQYWYKPYVGELYDYDYWGQGTQVTVSS”, the “polyreactivity (PSR sort gate)” value is reported as “low polyreactivity”.

Regarding “QVQLVETGGGLVQAGGSLRLRCAASGSIFGGYAMGWYRQAPGKERELVAAISSGGSTYYADSVKGRFTISRDNAKNTVYLQMNSLKPEDTAVYYCATSTYAYRRNSYYYTRPRFGYWGQGTQVTVSS”, the “polyreactivity (PSR sort gate)” value is “high polyreactivity”.

On to “QVQLVETGGGLVQAGGSLRLSCAASGFIFGYYAMGWYRQAPGKERELVADITSGGSTYYADSVKGRFIISRDNAKNTVYLQMNSLKPEDTAVYYCNKAWELVSQSLYYTEYNYWGQGTQVTVSS”, for which the “polyreactivity (PSR sort gate)” value is “low polyreactivity”.

As for “QVQLVETGGGLVQAGGSLRLSCAASGFIFHPNTMGWYSPAPGKERELVAGISYSGGITYTDSVKGRFTISRDNAKNTVYLQMNSLKPEDTAVYYCSAGDKYHYYWGQGTQVTVSS”, the “polyreactivity (PSR sort gate)” value was “low polyreactivity”.

Turning to “QVQLVETGGGLVQAGGSLRLSCAASGFILSLYAMGWYRQAPGKERELVAAISRSGASTSYADSVKGRFTISRDNAKNSVYLQMNSLKPEDTAVYYCNVRRWPYSPGYDYWGQGTQVTVSS”, the “polyreactivity (PSR sort gate)” value is recorded as “high polyreactivity”.

“QVQLVETGGGLVQAGGSLRLSCAASGFTFEGYAMGWYRQAPGKERELVAAINGSGGSTYYADSVKGRFTISRDNAKNTVYLQMNSLKPEDTAVYYCAKTDAFYRGYGYWGQGTQVTVSS”: the “polyreactivity (PSR sort gate)” value is given as “low polyreactivity”.

Consider “QVQLVETGGGLVQAGGSLRLSCAASGFTFPNAMGWYRQAPGKERELVATISSSGGSTYYADSVKGRFTISRDNAKNTVYLQMNSLKPEDTEVYYCAASTRQYWIYRAYRDEYWGQGTQVTVSS”, for which the “polyreactivity (PSR sort gate)” value is on record as “low polyreactivity”.

As to “QVQLVETGGGLVQAGGSLRLSCAASGFTFTSYAMGWYRQAPGKERELVARITSSTGSTYYADSVKGRFTISRDNAKNTVDLQMNSMKPEDTAVYYCNARRQRNKSYNYWGQGTEVTVSS”, the “polyreactivity (PSR sort gate)” value is “high polyreactivity”.
